The text below walks through data of the RNAGym collection of RNA variant scans (doi:10.1073/pnas.2313332121).

B1: TPR t1 (parent)
chain: GACCAAUCUGCCCUCAGAGCUCGAGAACAUCUUCGGAUGCAGAGGAGGCAGGCUUCGGUGGCGCGAUAGCGCCAACGUCCUCAACCUCCAAUGCAUCCCACCACAUGAUGAUGCCUGAAGAGCCUUGGUUUUUUG

In this data set the parent is B1. Nature of the data set: polymerase ribozyme fitness, log enrichment relative to wild type (log ratio); higher = more active; in vitro selection for triplet polymerase activity. In outline: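 After PCR construction and transcription, each subunit's mutant library from a heterodimeric triplet polymerase ribozyme was annealed with a biotinylated primer, the partner subunit and triplets. Incubation was frozen, at −7 °C, and extended constructs were gel-excised, bound to streptavidin beads and amplified by RT-PCR, in one selection round done in triplicate. Fitness is the logarithm of a genotype's enrichment divided by that of the wild type, from inverse-variance-weighted replicate averages of Illumina-sequenced inputs and outputs. The base of the logarithm is 2, and genotypes needed ≥10 input reads and ≥1 read per output.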
As for GACCAAUCUGCCCUCACAGCUCGAGAAUAUCUUCGGAUGCAGAGGAGGCAGGCUUCGGUGUCGCGAUAGCGCCAACGUCCUCAAACUCCAAUGCAUCCCACCACAUGAUAAUGCCUGAACAGCCUUGGUUUUUUG, the “polymerase ribozyme fitness (log ratio)” value is -1.25.
In the case of GACCAAUCUGCCCUCAUUGCUCGAGAACAUCUUCGGAUUCAGAGGAGGCAGGCUUCGGUGGCGCGAUAGCGCCAACGUCCUCAACCUCCAAUGCAUCCCACCACAUGAUGAUGCCUGAAGAGACUUGGUUUUUUG, the “polymerase ribozyme fitness (log ratio)” value is -4.71.
As for GACCAAUCUGCCCUCAUAGCUCGAGAACAUCUUCGGAUGCAGAGGAGGCAGGCUUCGGUGGGGCGAUAGCGCCAACGUCCUCAACCUCCAAUGCAUCCCACCACAUGAUGAUGCCUGAAGAGCCUUGGUUUUUUG, the figure is -3.93; as for GACCAAUCUGCCCUCACAGCUCGAGAACAUCUUCGGAUGCAGAGGAGGCAGGCUUCGGUGGCGCGAUAUCGCCAACGUCCUCAACCUCCAAUGCAUCCCACCACAUGAUGAUGCCUGAAGAACCUUGGUUUUUUG, -2.46.
In the case of GACCAAUCUGCCCUCACAGCUCGAGAACAUCUUCGGAUGCAGAGGAGGCAGGCUUCGGUGGCGCGAUAGCGCCAACGUCCUCAACCUUCAAUGCAUCCCACCACAUGAUGAUGCCUGAAGAGCCUUGGUUUUUUG, the “polymerase ribozyme fitness (log ratio)” value is -4.49.
On to GACCAAUCUGCCCUCAUAGCUCGAGAACAUCUUCGGAUGCAGAGGAGGCAGGCUUCGGUGGCGCGAUAGUGCCAACGUCCUCAACCUCCAAUGCAUCCCACCACAUGAUGAUGCCUGAAGAGCCUUGGUUUUUUG, for which the “polymerase ribozyme fitness (log ratio)” value was -3.3.
For the variant GACCAAUCUGCCCUCACAGCUCGAGAACAUCUUCGGAUGUAGUGGAGGCAGGCUUCGGUGGCGCGAUAGCGCCAACGUCCUCAACCUCCAAUGCAUCCCACCACAUGAUGAUGCCUGAAGAGCCUUGGUGUUUUG, the “polymerase ribozyme fitness (log ratio)” value was -3.78.
For GACCAAUCUGCCCUCAUAGCUCGAGAACAUCUUCGGAUGAAAAGGAGGAAGGCUUCGGUGGCGCGAUAGCGCCAACGUCCUCAACCUCCAAUGCAUCCCACCACAUGAUGAUGCCUGAAGAGCCUUGGUUUUUUG the value was -6.46.
For GACCAAUCUGCCCUCACAGCUCGAGAACAUCUUCGGAUGCAGAGGAGGCAGGCUUCGGUGGCGCGAUAGCGCCAACGUCCUCAAGCUCCAAUGCAUCCCACCACAUGAUGAUGCCUGAAGAGCCUUGGUUUUUUG the value was -6.06.
Regarding GACCAAUCUGCCCUCACAGCUCGAGAACAUCUUCGGAUGCAGAGGAGGCAGGCUUCGGUGUCGCGAUAGCGCCAACGUCCUCAACCUCCAAUUCAUCCCACCACAUGAUGAUGACUGAAGAGCCUUUGUUUUUUG, the “polymerase ribozyme fitness (log ratio)” value is -6.
As for GACCAAUCUGCCCUCAUAGCUCGAGAACAUCUUCGGAUGGAGAGGAGGCAGGCUUCGGUGGCGCGAUAGCGCCAACGUCCUCAACCUCCGAUGCUUCCCACCACAUGAUGAUGCGUGAAGAGCCUUGGUUUUUUG, the figure is -3.65; as for GACCAAUCUGCCCUCAUAGCUCGAGAACAUCUUCGGAUGCAGAGGAGGCAGGCUUCGGUGGCGCGAUAGCGCCUACGUCCUCAACCUCCAAUGCAUCCCACCACAUGAUGAUGCCUGAAGAGCCUUGGUUUUUUG, -3.16; as for GACCAAUCUGCCCUCACAUCUCGAGAACAUCUUCGGAUGCAGAGGAGGCAGGCUUCGGUGGCUCGAUAGCGCCAACGUCCUCAACCUCCACUGCAUCCCACCACAUGAUGAUGCCUGAAGAGCAUUGGUUUUUUG, -5.7.
For GACCAAUCUGCCCUCACAGCUCGAGAACAUCUUCGGAUGCAAAGGAGGCAGGCUUCGGUGGCGCGAUAGCGCCGACGUCCUCACCCUCCAUUGCAUCCCACCACAUGAUGAUGCCUGAAGAGCCUUGGUUUUUUG the value was -4.35; for GACCAAUCUGCCCUCAUAGCUCGAGAACAUCUUCGGAUGCAGAGGAGGCAGGCUUGGGUGGCGCGAUAGCGCCAACGUCCUCAACCUCCAAUGCAUCCCACCACAUGAUGAUACCUGAAGAGCCUUGGUUUUUUG, -5.78.
For the variant GACCAAUCUGCCCUCACAGCUCGAGAACAUCUUCGGAUGCAGAGGAGGAAGGCUUCGGUGGCGCGAUAGCGCCAACGUCCUUAACCUCCAAUGCAUCCCACCACAUGAUGAUGUCUGAAGAGCCUUGGUUUUUUG, the “polymerase ribozyme fitness (log ratio)” value was -5.49.
Turning to GACCAAUCUGCCCUCACAGCUCGAGAACAUCUUCAGAUGCAGAGGAGGCAGGCUUCGGUGGCGCGAUAGCGCCAACGUCCUCAACCUCCAAUGCAUCUCACCACAUGAUGAUGCCUGAAAAGCCUUGGUUUUUUG, the “polymerase ribozyme fitness (log ratio)” value was -5.26.
With GACCAAUCUGCCCUCAUAGCUCGAGAACAUCUUCGGAUGCAGUGGAGUCAGGCUUCGGUGGCGCGAUAGCGCCGACGUCCUCAACCUCCAAUGCAUCCCACCACAUGAUGAUGCCUGAAGAGCCUUGGUUUUUUG, the “polymerase ribozyme fitness (log ratio)” value was -3.04.
Take GACCAAUCUGCCCUCACAGCUCGAGAACAUCUUCGGAUGCAGAGGAGGCAGGCUUCGGUGACGCGAUAGCGCCAACGUCCUAAACCUCCAAUGCAUCCCACCACAUGAUGAUGCCUGAAGAGCCUUGGUUUUUUG: the “polymerase ribozyme fitness (log ratio)” value is -4.03.
For GACCAAUCUGCCCUCACAGCUCGAGAACAUCUUCGGAUGCAGAGGAGGCAGGCUUCGGUGGCGCGAUAGCGCCAACGUCGUCAACCUCCAAUGCAUCCCACCACAUGAUGAUGCCUGAAGAGCAUUGGUUUUUUG the value was -8.59; for GACCAAUCUGCCCUCACAGCUCGAGAACAUCUUCGGAUGCAGAGGAGGCAGGCUUCGGUGUCGCGAUAGCGCCAACGUCCUCAACCUCCAAUGCAUCCCACCACAUGAUGAUGCCUGAAGAGCCUUGGUUUUUUG, -3.71.
GACCAAUCUGCCCUCACAGCUCGAGAACAUCUUCGGAUGCAGAGGAGGCAGGCUUCGGUGGCGCGAUAGCGCCAACGUCCUCAAGUUCCAUUGCAUCCCACCACAUGAUGAGGCCUGAAGAGCCUUGGUUUUUUG: the “polymerase ribozyme fitness (log ratio)” value was -6.74.
For GACCAAUCUGCCCUCACAGCUCGAGAACAUCUUCGAAUGCAGAGGAGGCAGGCUUCGGUGGCGCGAUAGCGCCAACGUCCUCAACCUCCAAUGCAUCCCACCACAUGAUGAUGGCUGAAGAGCCUUAGUUUUUUG the value was -5.69; for GACCAAUCUGCCCUCAUAGCUCGAGAACAUCUUCGGCUGCAGAGGAGGCAGGCUUCGGUGGCGCGAUAGCGCCAACGUCCUCAACCUCCAAUGCAUCCCACCACAUGAUGAUGCCUGAAGAGCCUUGGUUUUUUG, -2.42; for GACCAAUCUGCCCUCAUAGCUCGAGAACAUCUUCGGUUGCAGAGGAGGCAGGCUUCGGUGGCGCGAUAGCGCCAACGUCCUCAACCUCCAAUGCAUCCCACCACAUGAUGAUGCCUGAAGAGCCUUGGUUUUUUG, -2.44.
For GACCAAUCUGCCCUCACAGCUCGAGAACAUCUUCGGAUGCAGAGGAGGCAGGCUUCGGUGGCGCGAUAGCGCCAACGUCCUCAACCUCCAAUGCAUCCCACCACAUGAUGAUGCCUGAAAAGCCUUGGUUUUUUG the value was -3.31; for GACCAAUCUGCCCUCAUUGCUCGAGAACAUCUUCCGAUGCAGAGGAGGCAGGCUUCGGUGGCGCGAUAGCGGCAACUUCCUCAACCUCCAAUGCAUCCCACCUCAUGAUGAGGCCUGAAGAGCCUUGGUUUUUUG, -6.95; for GACCAAUCUGCCCUCACAGCUCGAGAACAUCUUCGGAUGCAGAGGAGGCAGGCUUCGGUGGCGCGAUAGCGUCAACGUCCUCAACCUCCAAUGCAUCCCACCACAUGAUGAUGCCUGAAGAGCCUUGGUUUUUUG, -4.11.
On to GACCAAUCUGCCCUCACAGCUCGAGAACAUCUUGGGAUGCAGAGGAGGCAGGCUUCGGUGGCGCGAUAGCGCCAACGUCCUCAACCUCCAAUGCAUCCUACCACAUGAUUAUGCCUGAAGAGCCUUUGUUUUUUG, for which the “polymerase ribozyme fitness (log ratio)” value is -5.7.
As for GACCAAUCUGCCCUCACAGCUCGAGAACAUCUUCGGAUGCAGAGGAGGCAGGCUUCGGUGGCACGAUAGCGCCAACUUCCACAACCUCCAAUGCAUCCCACCACAUGAUGAUGCCUGAGGCGCCUUGGUUUUUUG, the figure is -5.23; as for GACCAAUCUGCCCUCACAGCUCGAGAACAUCUUCGGAUGCAGAGGAGGCAGGCUUCGGUGACGCGAUAGCGCCAACGUCCUCAACCUCCAAUGCAUCCCACCACAUGAUGAUGCCUGAACAGCCUUGGUUUUUUG, -1.39.
For GACCAAUCUGCCCUCACAGCUCGAGAACAUCUUCGGAUGCAGAGGAGGAAGGCUUCGGUGGCGCGAUAGCGUCAACGUCCUUAACCUCCAAUGCAUCCCACCACAUGAUGAUGUCUGAAGAGCCUUGGUUUUUUG the value was -4.65; for GACCAAUCUGCCCUCACAGCUCGAGAACAUCUUCGGAUGCAGAGGAGGCAGGCUUCGGUGGCGCGAUAGCGCCAACGUUCUCAACCUCCAAUGCAUCCCACCACAUGAUGAUGCCUGAAGAGCCUUGGUUUUUUG, -4.69.
In the case of GACCAAUCUGCCCUCAUAGCUCGAGAACAUCUUCGGAUGCAGCGGAGGCAGGCUUCGGGGGGGCGAUAGCGCCAGCGUCCUCAACCUCCAAUGCAUCCCACCACAUGAUGAUGCUUGAAGAGCGUUGGUUUUUUG, the “polymerase ribozyme fitness (log ratio)” value is -5.23.
For GACCAAUCUGCCCUCAUAGCUCGAGAACAUCUUCGGAUGCAGAGGAGGCAGGCUUCGGUGGCGCGAUAGCGCCAACGUCCUCAACCUCCAAUGCAUCCCACCACCUGAAGAUGCCUGAAGAGCAUUGGUUUUUUG, the “polymerase ribozyme fitness (log ratio)” value was -5.37.
For GACCAAUCUGCCCUCAUAGCUCGAGAACAUCUUCGGAUGCAGAGGAGGCAGGCUUCGGUGGCGCGAUAGUGCCAACGGCCUCAACCUCCAAUGCAUCCCACCACAUGAUGAUGCCUGAAGAGCCUUGGUUUUUUG the value was -3.17; for GACCAAUCUGCCCUCAUAGCUCGAGAACAUCUUCGGAUGCAGAGGAGGUAGGCUUCGGUGGCGCGAUAGCGCCAACGUCCUCAACCUCCAAUGCAUCCCACCACAUGAUGAUGCCUGAAGAGCCUUGGUUUUUUG, -2.42; for GACCAAUCUGCCCUCACAGCUCGAGAACAUCUUCGGAUGCAGAGGAGGCAGGCUUCGGUGGCGUGAUAGCGCCAACGUCCUCAACCUCCAAUGCAUCCCACCACAUGAUGAUGCCUGAAGAGCCUUGGUUUUUUG, -4.22.
As to GACCAAUCUGCCCUCACAGCUCGAGAACAUCUUCGGAUGCAGAGGAGGCAGGCUUCGGUGGGGUGAUUGCGCCAACGUCCGCAACCUCCAAUGCAUCCCACCACAUGAUGAUGGCUGAAGAGCCUUGGUUUUUUG, the “polymerase ribozyme fitness (log ratio)” value is -6.46.
For GACCAAUCUGCCCUCAUAGCUCGAGAACAUCUUAGGAUGCAGAGGAGGCAGGCUUCGGUGGCGCGAUAGCGCCAACGUCCUCAACCUCCAAUGCAUCCCACCACAUGAUGAUGCCUGAAGAGCCUUGGUUUUUUG the value was -3.65; for GACCAAUCUGCCCUCAUAGCUCGGGGACAUCUUCGGAUGCAGAGGAGGCAGGCUUCGGUGGCGCGAUAGCGCCAACGUCCUCAACCUCCAAUGCAUCCCACCACAUGAUGAAGCCUGAAGAGCCUUGGUUUUUUG, -6.66.
For the variant GACCAAUCUGCCCUCACAGCUCGAGAACAUCUUCGGAUGCAGAGGAGGCAGGCUUCGGUGGCGCGAUAGCGCCAACGUCCUCAACCUCCAAUGCAUCCCACCACAUGAUGAUGCCUGAAGGGCCUUGGUUUUAUG, the “polymerase ribozyme fitness (log ratio)” value was -1.73.
